Reference: the supplement of paper PMC10567573
± gives the standard deviation.

Experiment: protein stability index of a GFP-peptide fusion (GPS, HEK-293T) (PSI 1-6); higher = more stable
Conditions: c terminus: a fixed tail appended
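Further: 24-mer peptide tiles fused after GFP, lentivirally expressed, FACS-sorted into six equal bins by GFP/DsRed ratio, decoded by Illumina sequencing, PSI is the read-weighted mean bin number.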

Sequence	protein stability index (treatment: DMSO)	protein stability index (treatment: MLN4924 1 uM, 8 h)
ETRRLSIGLDNGTISEFILSEDYN [WDFY2]	3.84 ± 0.34	4.03 ± 0.3
ETVGGAILDQTTSEDAVGGATLGQ [HDAC6]	5.29 ± 0.25	5.62 ± 0.25
EVIVFGGCANNLLVHHRAAHSNEI [KLHDC2]	2.13 ± 0.19	2.2 ± 0.26
EVRLVQKKDTGHIYAMKILRKSDM [STK38L]	2.65 ± 0.22	2.45 ± 0.29
EVTLEANPTSAPGSRLAEFGAAGV [RSAD1]	4.21 ± 0.13	4.25 ± 0.24
EYAGSNTYEEAAAYIQCQFEDLNK [GNAI1]	3.95 ± 0.37	4.12 ± 0.5
EYEAGRAGPGGGAERRRAGRLLLT [ESRRA]	4.23 ± 0.37	4.33 ± 0.18
EYVHSKNLIYRDVKPENFLIGRPG [CSNK1G3]	2.79 ± 0.32	2.78 ± 0.32
FAKAKPEIPWTSLTRKGLVRVVFF [PHTF1]	3.41 ± 0.51	3.29 ± 0.84
FASGGFQVKLYDIEQQQIRNALEN [CRYL1]	2.56 ± 0.28	2.95 ± 0.83
FCADNPSELPPPMERTGGIGDSRP [DVL3]	4.45 ± 0.32	4.62 ± 0.32
FCDRCCSQKVPLRRMCFVDPVRQC [ZFYVE21]	2.29 ± 0.14	2.04 ± 0.15
FDIQQGFDNPQVRFFLGDLCSRQD [NSDHL]	2.94 ± 0.24	2.86 ± 0.31
FDSHRLPGDCFLLLVLLLYAPVGF [AUP1]	3.02 ± 0.62	3.15 ± 0.17
FEFDETSFWNSSHPRGWNDHVHIL [KLHDC2]	2.37 ± 0.64	2.18 ± 0.28
FETHESDINSVRYYPSGDAFASGS [GNB5]	3.9 ± 0.25	3.94 ± 0.16
FFWHLTLPERRGTCADRDNLTRRF [CASP6]	2.61 ± 0.36	2.09 ± 0.18
FGAWRCLLDATVAGGQTRLQASDR [FCHSD1]	2.36 ± 0.27	2.48 ± 0.34
FGVAGRSCQEVLRKGCLRFQLPER [DFFB]	2.33 ± 0.24	2.25 ± 0.12
FIGEESVAAGEKSILTDNPTWIID [IMPA1]	2.82 ± 0.46	3.38 ± 0.28
FKTGNSTATCTTNNNPNSCVNIKK [KCNA3]	4.53 ± 0.15	4.58 ± 0.36
FLEEDNYKNIKRPPGDIMFLLVQR [USP39]	2.23 ± 0.37	2.11 ± 0.27
FLGHHSFSVRPGTEATISIREDEV [SCNN1D]	2.42 ± 0.64	3.12 ± 0.52

Sequence	protein stability index (treatment: DMSO)	protein stability index (treatment: MLN4924 1 uM, 8 h)
FLNFNGMKLFLDCLKEFPEKQELH [ZER1]	2.29 ± 0.18	2.42 ± 0.18
FLPEKKDTGVFAVVNSHSLSLLGK [SLC22A15]	2.57 ± 0.39	2.83 ± 0.52
FLQRGADTNLGRLEDGQTPLHLSA [ASB7]	3.61 ± 0.17	3.76 ± 0.26
FMLGLGTLLPWNFFMTATQYFTNR [SLC29A1]	2.87 ± 0.55	3.13 ± 0.26
FNFKFNLTEDMYAQDSIELLTTSG [CNOT7]	1.825 ± 0.003	–
FPACRVSVTGLDPEARYLFLLDVI [TBX6]	2.56 ± 0.53	2.09 ± 0.24
FPSDHLGDLGDPFHLGLEDILMEE [TFE3]	3.82 ± 0.19	4.04 ± 0.4
FPSSGRFWKLYIEAEVTILFYFFL [CSTF3]	2.87 ± 0.66	2.35 ± 0.9
FRQMATALAHCHQHGLVLRDLKLC [TRIB3]	2.21 ± 0.38	2.03 ± 0.3
FSEIRETSAKVNWMPPPSRADSFK [TNXB]	3.58 ± 0.31	3.88 ± 0.37
FSFKVSRWMGLACFRSLAASSPSI [CCDC70]	2.2 ± 0.34	2.63 ± 0.53
FSIGLGPMPWLVLSEIFPGGIRGR [SLC2A12]	2.29 ± 0.67	2.51 ± 0.5
FSPSQFLNFWNKQDTLELESPSLT [MYBL2]	2.47 ± 0.55	3.06 ± 0.39
FTSSPSPFSSSSPENVEDSGLDSP [FCHO1]	2.86 ± 0.94	3.81 ± 0.87
FTYDPWIGKLLYLEDFFVMSDYRG [SAT1]	2.88 ± 0.51	2.79 ± 0.76
FVLSLVKKHYRLQFYMFGWTHVTL [CDS2]	2.99 ± 0.57	2.99 ± 0.67
FYLPREELWIYNMETGRWKKINTE [KLHDC2]	2.63 ± 0.22	2.32 ± 0.49
FYMEEGVPYCERDYEKMFGTKCHG [PDLIM7]	2.78 ± 0.4	3.19 ± 0.31
FYTLSPNSHFSLNVKTLKDGKPFP [PCDHGC5]	2.6 ± 0.21	2.62 ± 0.24
GAAEPITVKFANNPSQKTGQALLT [ELAVL3]	4.1 ± 0.3	4.39 ± 0.055
GAAESPYAYSNGIDYKTTTILLDG [RAB40C]	3.7 ± 0.39	3.67 ± 0.39
GAHTLVNHGYAEPAAGRELPPDMT [KCNA3]	4.87 ± 0.13	4.73 ± 0.17
GAILTTMLATRNFSGGKSGGNKKS [CAMK2A]	3.67 ± 0.24	3.63 ± 0.41

Sequence	protein stability index (treatment: DMSO)	protein stability index (treatment: MLN4924 1 uM, 8 h)
GATWRTSGLLEELNAEAGHLDPGF [C18orf25]	3.98 ± 0.43	3.75 ± 0.52
GAVVLGAESHASKDVAIDMMDSRT [STX5]	4.67 ± 0.2	4.64 ± 0.44
GCDRIIGSKKKFDKCMVCGGDGSG [ADAMTS4]	3.21 ± 0.34	4.053 ± 0.022
GCYAYRQNPEAIAAAAMYTFLPDN [MYORG]	2.61 ± 0.34	2.46 ± 0.29
GDRPRWQRLLGEDKFQWLAGLAPP [ANKRD9]	2.85 ± 0.35	2.7 ± 0.3
GEAAAGGAAEEARRLEQRWGFGLE [ACBD3]	4.49 ± 0.38	4.43 ± 0.38
GEGVERELFVREPTGRLPALVRWW [MYORG]	2.91 ± 0.075	2.77 ± 0.34
GEITQHNVTELLRDVAAWGRARAT [DNAAF3]	3.11 ± 0.35	3.53 ± 0.5
GELSPEQPSFEPTKNKELTDEFRE [FADS1]	5.52 ± 0.33	5.38 ± 0.18
GETYCEEHGEKIYFFCENDAEFLC [TRIM15]	3.22 ± 0.26	3.33 ± 0.44
GFGDEDTGLELIAEESNPPLQDFP [MIA2]	5.4 ± 0.34	5.23 ± 0.069
GFWQLPPPATQNTFGNSTLALGPG [PLAGL1]	3.17 ± 0.15	3.29 ± 0.35
GGGFAGGDGLLVGSEKVTMQNLND [KRT16]	4.72 ± 0.34	4.73 ± 0.1
GGLQKMVALLNKTNVKFLAITTDC [CTNNB1]	2.73 ± 0.61	2.45 ± 0.46
GGMNHSAFPQTPFKTGNSTATCTT [KCNA3]	4.27 ± 0.24	4.4 ± 0.4
GGPGGRGPWSCENFNPLLVAGGVA [CEND1]	2.82 ± 0.23	2.72 ± 0.18
GGPSSPPSDPPAMSPGPLDALSSP [C2CD2L]	5.23 ± 0.26	5.27 ± 0.14
GGYFKAHIKFPIDYPYSPPTFRFL [UBE2R2]	2.61 ± 0.96	2.71 ± 0.52
GHPFFEGVDWEHIRERPAAIPIEI [STK38L]	2.46 ± 0.39	2.84 ± 0.38
GKAFSQNSGLINHQRIHTGEKPYE [ZNF24]	3.86 ± 0.19	4.33 ± 0.42
GKHPKDKTEDENKQSFLDGGKGHH [TOR1AIP2]	5.4 ± 0.34	5.55 ± 0.22
GKVEAQHILASAPTDRNLCHFQAL [PYCR3]	2.7 ± 0.25	3.04 ± 0.31
GLKPGPEDGPGKEEAPELDEAELD [SERTAD1]	5.67 ± 0.34	5.83 ± 0.064

Sequence	protein stability index (treatment: DMSO)	protein stability index (treatment: MLN4924 1 uM, 8 h)
GLLICLPREQAARFCSEIKSSKYG [SEPHS2]	2.04 ± 0.28	2.17 ± 0.55
GLPLAASMQEDEQSGRDLQQYQSQ [SEC22B]	5.34 ± 0.24	5.43 ± 0.3
GLRLCRPKAKAKAKAKAKDQTKAQ [RPL29]	3.91 ± 0.23	4.16 ± 0.34
GNAHYQRADFVLAANSYDLAIKAI [FKBP8]	2.5 ± 0.079	2.43 ± 0.33
GNKSDLKQLRQVTKEEGLALAREF [RIT1]	4.31 ± 0.25	4.26 ± 0.12
GPARSGFRLETLAGLRSRRLKQPK [MIR22HG]	3.87 ± 0.24	4.14 ± 0.13
GPAVVCGTPTSHVYMFKNGSGDSG [LYSMD4]	3.7 ± 0.12	3.65 ± 0.33
GPGDEVARGIAGEKFDIVKKWGIN [ARFIP2]	4 ± 0.17	4.2 ± 0.046
GQILELPWKEETFLVLQSLLERQV [FANCE]	1.9 ± 0.35	2.1 ± 0.34
GQREPGSLSRNNSFRRNVGRVLLA [FBXO34]	3.11 ± 0.26	3.46 ± 0.21
GQRIRRGSIGVWHYICPRLGGIGF [SLC6A17]	2.23 ± 0.27	2.42 ± 0.2
GRAVEHAMFLGDAAAHWYGGAEMR [MYORG]	2.87 ± 0.34	3.14 ± 0.27
GRDDLESFQLEISGFLKEMACPYS [FAM98B]	2.29 ± 0.3	2.67 ± 0.75
GRNFILFIIFGTMEEMQNKAVVFF [HACD3]	2.94 ± 1.4	2.36 ± 1.2
GRQPALRPHVHKQTEKTTRVRTVL [ISL2]	3.66 ± 0.1	3.88 ± 0.17
GSAVEVQTYQPPWKALSEFALQSD [ISL2]	3.61 ± 0.4	3.73 ± 0.39
GSLDIMKMLLMYCAKMEKDGYGMT [FEM1C]	3.22 ± 0.46	2.58 ± 0.7
GSLILPPGPGGTMKRHSSRDAAGK [FCHO1]	4.68 ± 0.2	4.56 ± 0.2
GSQDGHFVLSCSYDGLDCQARQFR [SCNN1D]	2.52 ± 0.12	2.71 ± 0.29
GSRCLKTFEVPEENTAETITRVLY [ZBED1]	2.66 ± 0.47	2.64 ± 0.18
